The text below walks through data of patent US5783681, “Androgen regulation with DNA sequences of rat probasin gene” (University of Manitoba).

Conditions in all cases: tags: GST fusion, expressed in E. coli; chain copies: 2
For series [1], the target named is T1, GST-AR1 (androgen receptor DNA- and steroid-binding domains) (Rattus norvegicus, UniProt P15207 P15207:541-902). The experiment in a line: footprint; site -236 to -223 protected within probasin 5'-flanking DNA. As to the method:
(§1) The DNase I footprinting was performed essentially as described (Von der Ahe et al., 1993; Rennie et al., 1993). Proteins (10 ng to 18 µg) were incubated with 20,000 cpm of the labelled DNA in 100 µl of DNA binding buffer for 30 min at 20° C. After adjusting the samples to 4 mM MgCl_2 and 2.5 CaCl_2 mM, 5 ng of DNase I was added and allowed to digest the DNA for 2 minutes at 20° C. The reaction was stopped by adding 100 µl of stop buffer (0.25% SDS, 0.3M EGTA, and 500 µg/ml of proteinase K) and incubated for 1 hour at 37° C. The samples were extracted with phenol-chloroform; precipitated with 0.2M sodium acetate, 85 µg/ml carrier tRNA, and 2 volumes of ethanol; redissolved in 3 µl of formamide dye solution. After heating at 70° C. for 10 minutes and rapid cooling on ice, the samples were loaded, together with an A+G Maxam-Gilbert sequencing reaction to obtain a purine ladder, on 7% polyacrylamide/urea gels (acrylamide:bis, 30:1) and run (Rennie et al., 1993). The gels were dried and set up for autoradiography.
(§2) The androgen response elements (ARE) are located at −241 to −223 (ARE-1) and −140 to −117 (ARE-2). The sequence of ARE-1 and ARE-2 in the 5'-flanking PB DNA were determined using DNase I footprinting assays with peptides containing the DNA-binding domain of the androgen receptor and later bioassay of the functional domains. […]

In series [2] the target is T2, GST-AR2 (androgen receptor DNA-binding domain and hinge region) (Rattus norvegicus, UniProt P15207 P15207:541-650). The series is described as above. As to the method: as §1, §2
T2 sequence (P15207 541-650, one chain of several): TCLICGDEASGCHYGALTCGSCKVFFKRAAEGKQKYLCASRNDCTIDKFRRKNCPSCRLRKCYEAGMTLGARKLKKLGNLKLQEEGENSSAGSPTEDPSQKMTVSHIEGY
The target of series [3] is T1, GST-AR1 (androgen receptor DNA- and …). The series is described as follows: footprint; site -140 to -117 protected within probasin 5'-flanking DNA. The procedure: as §1, §2
Series [4] addresses T2, GST-AR2 (androgen receptor DNA-binding …). The description is as above. As to the method:
as §1, §2

T1 sequence (P15207 541-902, one chain of several): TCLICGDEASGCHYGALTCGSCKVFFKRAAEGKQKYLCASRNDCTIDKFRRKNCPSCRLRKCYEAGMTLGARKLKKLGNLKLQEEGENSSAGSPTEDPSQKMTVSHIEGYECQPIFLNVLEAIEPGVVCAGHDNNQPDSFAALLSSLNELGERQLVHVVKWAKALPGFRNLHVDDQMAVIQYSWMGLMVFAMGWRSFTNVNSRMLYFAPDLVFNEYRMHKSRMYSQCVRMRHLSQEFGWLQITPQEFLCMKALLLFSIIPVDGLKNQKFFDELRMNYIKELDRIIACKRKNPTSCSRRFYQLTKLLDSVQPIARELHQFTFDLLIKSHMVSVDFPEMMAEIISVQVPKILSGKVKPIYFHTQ

B1: probasin ARE-1 (dsDNA)
DNA 1: ATAGCATCTTGTTCTTAGT
DNA 2: ACTAAGAACAAGATGCTAT
As to B1, the binding result in series [1] and in series [2] was “binds” in each case.

B2: probasin ARE-2 (dsDNA)
DNA 1: GTAAAGTACTCCAAGAACCTATTT
DNA 2: AAATAGGTTCTTGGAGTACTTTAC
For the molecule B2, the binding result in series [3] and in series [4] was “binds” throughout.
